Experimental data as given in the DeepSol protein solubility set.

Assay: soluble on expression in E. coli; label from the status in PepcDB or PDB records

| Sequence | soluble on expression in E. coli |
| --- | --- |
| MKLFHTADWHLGKLVHGVYMTEDQKIVLDQFVQAVEEEKPDAVIIAGDLYDRAIPPTEAVDLLNDVLQKIVIDLQTPVIAVAGNHDSPDRIHFGSSLMKKQGLHIVGQFQFPYEPVVLNDEYGEVHFHLIPYADPSIVRHVLKNEDVRSHDDAMRIFMNELSETMDKEARHVFVGHAFVTSSGEAEENTSDAERPLSIGGAEYVNSHYFDKFHYTALGHLHQAHFVRNETIRYSGSPLAYSISEEKHKKGYYIVELNETGEVAIEKRLLSPRRKMRTVEAKIDELLQHPVSEDYVFVKLLDENPVLQPMEKIRSVYPNAMHVERAMQRRELTDTNEVTVSRHKTDDLSLLKAFYKEMKGLDLSEEKERLFIDVLQTVQEREGERG | not soluble |
| MGSDKIHHHHHHMLKVDPTSPELSILLANPRGFCAGVDRAISIVERALELFEPPIYVRHEVVHNRYVVENLKQRGALFIDELDQVPDNSIVIFSAHGVSQAVRKEAKNRGLKVFDATCPLVTKVHLQVTRASRKGIECILIGHEGHPEVEGTMGQYDNPKGGVYLIESPEDVNNLQVNNPDNLCFVTQTTLSVDDTLDIITALQKRFPSIEGPRKDDICYATQNRQDAVRSMSSEVDLLIVVGSKNSSNSNRLRELAEKTGTQSYLVDTAADVEAMWFDGVKKVAVTAGASAPEVLVQQVVNAIAKLAPSIITEVEGRKEDTVFAVPAELR | not soluble |
| MGTMHTSELLKHIYDINLSYLLLAQRLIVQDKASAMFRLGINEEMANTLGALTLPQMVKLAETNQLVCHFRFDDHQTITRLTQDSRVDDLQQIHTGIMLSTRLLNEVDDTARKKRA | not soluble |
| MCLAIPMQIESIDGFTARCAAKGVWRDVSLFMMQDAPPEVGDFVMVHVGYAIQKVTEADARSAWELLDQILEENGA | not soluble |
| MKIVIAPDSFKESLSALEVAEAVERGFRTVFPEAEYVKVPMADGGEGTVRSLVDATGGRIVETEVTGPLGEPVRAFFGLLGDGKTAVIEMAAASGLHLVPRDRRNPLVTTTRGTGELILAALDAGATHLIIGIGGSATNDGGAGMVQALGGRLLDEDGCDIGPGGGALADLHAIDLSGLDPRLGGVRIDVACDVDNPLTGPNGASAIFGPQKGATPDMVAVLDRNLAHYADVIRRDLGKQVGDIPGAGAAGGLGAGLLAFLPAELKRGVEIVIETVQLAERVKDADLVITGEGRIDGQTVFGKTPIGVAKTAKQFGVPVIGIAGSLGDDSAVVLDHGIDALFTIVPGVVPLEKALEQAEHYVTQTARHIASVYRLGQMKGTSSS | not soluble |
| MGSDKIHHHHHHMNTADNVVEMRSISKGFNGVSVLKDVSFDVRKGEVHALAGGNGAGKSTLMKILQGVYQADAGEILIGGKPVAINSIQDAKSAGIGMVFQEFSLVPSLTVAQNIFLAAEPLGAGGLIDDRASERRAKEIFAEMEVKVDPRAEVSRLGTAYWQLTEIAKALSQNAQVLIMDEPTASLARHESEALFELIDRLKQRGISIIYISHRMDEVYRLADRITILRDGRRLLTEPLTGVTPEQIVEGIVGKKIEGQLAYRERDQVAHDSAPLLEVRGLNAGPRVRDISFSLRPGEILGLAGLMGSGRTELARALFGIDRRDSGEIFIRGERINLTSPQQAITAGVALIPEDRRAQGLVLEHSVQDNLLLPLLGQIQRGPFLDGARGKELSSSLIKRFAVKVAHPHRPVRLLSGGNQQKVVIAKWLGTDPDILILDEPTAGVDIGTKSEILDMIRELASAGKAVIVISSEYPELLAVSDRVLVLKDGSIIRDIPRSEIADEEYLQLAVQGV | not soluble |
| MSLASLIGLAVCTGNAFSPALAAEAKQPNLVIIMADDLGYGDLATYGHQIVKTPNIDRLAQEGVKFTDYYAPAPLSSPSRAGLLTGRMPFRTGIRSWIPSGKDVALGRNELTIANLLKAQGYDTAMMGKLHLNAGGDRTDQPQAQDMGFDYSLANTAGFVTDATLDNAKERPRYGMVYPTGWLRNGQPTPRADKMSGEYVSSEVVNWLDNKKDSKPFFLYVAFTEVHSPLASPKKYLDMYSQYMSAYQKQHPDLFYGDWADKPWRGVGEYYANISYLDAQVGKVLDKIKAMGEEDNTIVIFTSDNGPVTREARKVYELNLAGETDGLRGRKDNLWEGGIRVPAIIKYGKHLPQGMVSDTPVYGLDWMPTLAKMMNFKLPTDRTFDGESLVPVLEQKALKREKPLIFGIDMPFQDDPTDEWAIRDGDWKMIIDRNNKPKYLYNLKSDRYETLNLIGKKPDIEKQMYGKFLKYKTDIDNEGHHHHHH | not soluble |
| MQEDDSVKPFQTVGAHRDLIHCVSFDPHGRRMATCASDMTMAIWDRKPDGNWRRSAHWKCHGGAVWRVIWAHPEFGQIVATCSYDRTIVIWEEQIVRSEKDLKQKESQWIRRTIISDNRSDVTDICFSPRHLGLMMASCNVLGTVRIYEAPDIVDASRWNLIHELQAFHTRCGCVTWSLSRMHRPLIAVGSDEKKAENKKRVVIYENIDGLRKWQRINSLVFDLPCPITDLKFSPISMVDSHQLAVASGDVHVYNIKVARSAILEEDGVENPIQLADYNLIKVALLGDHRKAWRLRYNLMGSVISSTSLDGTLRSWKSLFVNQWVKLSEMNVDDYVPSPEEVRAFISSKTTERLPSQLEKTYF | not soluble |
| MGSDKIHHHHHHLTWPEASKAASENGSTLVWPFGACEQHGPHLPLITDTFFAENILIKTLNRLPENMPIWMMPSQSIGFSPEHQAFPGTLSLSADVLISMVTDVGQQIASMGFNRLVFFNAHGGQIGLLQAVSRQLRIQCPSIAVLPCFLWSGVPGLDQLLPEKEVEEGLHAALAETSLMLHMARDLVRNDSYLEIKNVDKQIVTTPKGWSLEGASPCAWLTEDLSSSGVIGDASSSNSELGAALENALVDHWIALFTSLLESDWPPIRSERPVSSS | not soluble |
| MGHHHHHHGGHMSLTKKLHIKTWGCQMNEYDSSKMADLLDATHGYQLTDVAEEADVLLLNTCSIREKAQEKVFHQLGRWKLLKEKNPDLIIGVGGCVASQEGEHIRQRAHYVDIIFGPQTLHRLPEMINSVRGDRSPVVDISFPEIEKFDRLPEPRAEGPTAFVSIMEGCNKYCTYCVVPYTRGEEVSRPSDDILFEIAQLAAQGVREVNLLGQNVNAWRGENYDGTTGSFADLLRLVAAIDGIDRIRFTTSHPIEFTDDIIEVYRDTPELVSFLHLPVQSGSDRILNLMGRTHTALEYKAIIRKLRAARPDIQISSDFIVGFPGETTEDFEKTMKLIADVNFDMSYSFIFSARPGTPAADMVDDVPEEEKKQRLYILQERINQQAMAWSRRMLGTTQRILVEGTSRKSIMELSGRTENNRVVNFEGTPDMIGKFVDVEITDVYPNSLRGKVVRTEDEMGLRVAETPESVIARTRKENDLGVGYYQPEGGS | soluble |
| MSTVVDQEGNNKQQTVAVIGAGIIGINCALELQSLGYQVTLLDKEGIGLGCSKANAGHFATEQVFPLAEFSLLWQMPKLLFDPLGPVALSAKHFIKAIPWFMQFFNNMRPTLRNKNKKALQALNKNAIHHYTALLKAAEAEHLISLDGSLLVFETNDRTKVELMYQHYLAAGIAVKLLDKRQTLELEPNLSNNINYSLYFTDVAHTIDPLALSKTLAEFAMCKGMTFQQTAVTSVTQTQSGVTVEIDEQHLHVDHCVIACGAWSKKLLNGLNYHLPIEAERGYSLSLPISAAASALLSRPVASAERRFIITPMGKTLRLAGTVEYAGLNAPANYKRAEMLKGNAAYILKRLPENEEKQEAWMGCRPSLPDSLPVICQAPNHDKIFFALGHQHLGLTQGAITGKLIGQLVTGHSPEINIDPFCIRRFNLEHHHHHH | not soluble |
| LHRIVDKMHDTSTGIRPSPNMEQGSTYKKTFLGSSLVDWLISSNFAASRLEAVTLASMLMEENFLRPVGVRSMGAIRSGDLAEQFLDDSTALYTFAESYKKKVSSKE | soluble |
| MKLVTISGPPSSGKTAVLAGVIRAMMASGLKVGALKYDCLATNDDDVFRAIGVPVQTGLSGNLCPDHYFVSNIEECLDWGIREGFDFLLSESAGLCNRCAPHIKGVLAVCVIDNLMGATTPKKIGPMLKYADIVVITKGDIVSQAEREVFAFQVRRANPRAKIMHVNGITGQGAGELASQFLLAPETTCLDGSRLRFSMPAALCSYCLGETRIGMEFQLGNVKKIKMSEEPARLEHHHHHH | soluble |
| MSLTRIVLPGGAGLVGQNLVARLKARGYTNLVVLDKHEANLDVLRSVHPDITAVFADLAEPGDWARHFEGADVVVMLQAQIGAPTREPFVRNNIDSTRCVLEVIKQHAIPYTVHISSSVVKSVGEDWYTETKREQEAIVLASGIGCVVLRPTLMFGWFDRKHLGWLSRFMQRVPVFPIPGSGRYMRQPLYVGDFCNVIISCIDSRIQGQTFDITGLERIDYIDIIRQIKRVTRARCAIVRIPYGLFHILLKVYALFSKNPPFTADQLKALTAGDEFDVIDWERIFAIRATPFAQAMEETFNDPTYSHIALEEGHHHHHH | soluble |
| MGSDKIHHHHHHMNYPSLVWHLKRTELFADFELAELEQVAATTPYRSYQPGEVIYRMDDPADALYFVRSGLVKISKLFPNGKEAILGVVGQHDTFGELLLQPEERRPTQAEALERTTLIVLPRQELQKLLSTKPDLAMKLIRLMAARLFEAQAWTATVSAYSAPERVASLLYRLAREFGRPHSQGVELNLKLNQEDIARMVGATRETVSHSLSRLKKGGAIVRARSPIIVQMDALKAFIDQEH | not soluble |
| MNIVSTSVALLLAAASAEVENRKSSNATEVNMTETAQIENHPYVGMWVTGDGHIRQELLPNGRYDEARGKRKSAYQGRYEVKGNHIDYWDDTGFTADGEFVDDVLHHGGMIFYRQK | not soluble |
| MSLKRIRPLDPDVVNKIAAGEIIVAPMHALKELIENAVDAGSTSIEVLVKDGGMKLLQITDNGHGIDRDDLPILCERFTTSKLKQFEDLSSIGTYGFRGEALASISHIAHLTVTTKTAGSSCAWRAHYSDGKLVPPKPGQSAEPKATAGRGGTQITVEDLFYNVPTRRRAFRSASEEYAKILDVVGRYAVHCSGVAFSCRKHGESGAGISTPAAANTTDRIRQIHGSAVANELVEFQVEDSKLGFRSSGLVTNANYHVKRTVIMLFINHRSVESTAIKRAVEQTYSSFLPKGGHPFVYIDLEIEPHRVDVNVHPTKREVNFLNEDDIIESICSEIRSKLAQEGHHHHHH | soluble |
| VDYKEWYDLRIEALQMQAQMHRSPLRGLIGARVGLIPHQLYIAHEVGQRFAPRVLLADEVGLGKTIEAGLIIHQQLKTGRAERILILVPDSLQYQWMIEMRRRFNLQFSLFDLTRTASIKEHDPDLNPFLTEQCIIASVDLMVDHDDLREQALEAGFDLLVVDEAHHLMWNEEEGGNDRYDLVEELAQQTPGVLLLTATPE | not soluble |
| MSLGLHITDQQVHRYMSQRRHHTQAVAAAKAGISERSARRIDKNPQLPSQKKRERHWRTRPDPLEQIWPRVEELLKIAGILSVTIFETVQDEFGEAAVPDGVRRTLERRIARWRALNGGEKEIFFPQHHEIGRQGLLDFTVADDLHVTIAGQRFDHRLFHFRLASSGWEDSAVVLGGESFTALSEHLQDALWKLGGVPAELRSDSLSAAYKNLDADAQRDFTRNYEALCRHYGMTPTRNNKGVAHENGSIEAPNGHLKRRMDQALRRRSSRDFPSIEDYRRFVDQEVAKQNRRRARLMDDERRVLKSLPPKRTTDFTLVSADVTRNSTISVDRVTYSVPSRLIGYRLHAHLYDDRVEFFLGPDQVMTADRVRVKHAERGHNIDFRHFIGNLKRKPQALRYLVYRNALFPTHAYTRAWQALDAALDARQACRDMVALLDIAANGNCVDALALRIEAALDRGKLPNVAKLKSEFLPTVRSRVDVTIPPPDFAGYNHLLANAQEGHHHHHH | not soluble |
